This is an account of results in patent publication US11591404B2, “Treatment of cancer using a CD123 chimeric antigen receptor” (Novartis AG, priority 2014, dated 2023).

One assay has as its system cynomolgus CD123. The assay is described as follows: Cross-reactivity of anti-CD123 clones against cynomolgus CD123. Format: binding.
The test system of assay [1] is MOLM14 (CD123+ tumor cells). The assay is described as follows: CD107a degranulation of CART cells, 2 hours. Conditions: 2-hr in vitro assay, CD123+ targets. Format: cell-based. As to the method: To assess degranulation, CART cells (NVS 2-4, 1172 and 1176 clones) were thawed, rested overnight at a concentration of 2e^6 cells/ml in T cell media. Cells were then counted and resuspended at 1e^6 cells/ml the following day. Tumor target cells (TCM, PMA/iono, MOLM14 or JURKAT) were resuspended at 5e^6 cells/ml. Cells were plated at a ratio of 1e^5 T cell: 5e^5 tumor cell in 48 well plates and incubated for 2 hours in the presence of anti-CD107a PECy7, anti-CD49d purified, and anti-CD28 purified antibodies. Cells were then harvested, stained with anti-CD3 APC and acquired using BD LSR Fortessa (FIG. 7).

B1: CAR123-4: fully human anti-CD123 scFv CAR with 4-1BB and CD3zeta; CAR amino acid SEQ ID NO: 101 (protein, listed as Homo sapiens)
chain: MALPVTALLLPLALLLHAARPQVQLQQSGAEVKKSGASVKVSCKASGYTFTDYYMHWLRQAPGQGLEWMGWINPNSGDTNYAQKFQGRVTLTRDTSISTVYMELSRLRSDDTAVYYCARDMNILATVPFDIWGQGTMVTVSSASGGGGSGGRASGGGGSDIQMTQSPSSLSASVGDRVTITCRASQSISSYLNWYQQKPGKAPKLLIYAASSLQSGVPSRFSGSGSGTDFTLTISSLQPEDFATYYCQQGDSVPLTFGGGTKVEIKTTTPAPRPPTPAPTIASQPLSLRPEACRPAAGGAVHTRGLDFACDIYIWAPLAGTCGVLLLSLVITLYCK
Regarding B1, in the assay on cynomolgus CD123, the “cross-reactivity against cynomolgus CD123” value (“cross-reactivity” below) is listed as “cross-reactive against cynomolgus CD123”.

B2: 1172: murine CD123 CAR construct, CD123 4-1BBCD3z-CAR, SEQ ID NO: 707, described in PCT/US2014/017328 (protein)
chain: MALPVTALLLPLALLLHAARPGSDIVLTQSPASLAVSLGQRATISCRASESVDNYGNTFMHWYQQKPGQPPKLLIYRASNLESGIPARFSGSGSRTDFTLTINPVEADDVATYYCQQSNEDPPTFGAGTKLELKGGGGSGGGGSSGGGSQIQLVQSGPELKKPGETVKISCKASGYIFTNYGMNWVKQAPGKSFKWMGWINTYTGESTYSADFKGRFAFSLETSASTAYLHINDLKNEDTATYFCARSGGYDPMDYWGQGTSVTVSSASSGTTTPAPRPPTPAPTIASQPLSLRPEACRPAAGGAVHTRGLDFACDIYIWAPLAGTCGVLLLSLVITLYCKRGRKKLLYIFKQPFMRPVQTTQEEDGCSCRFPEEEEGGCELRVKFSRSADAPAYKQGQNQLYNELNLGRREEYDVLDKRRGRDPEMGGKPRRKNPQEGLYNELQKDKMAEAYSEIGMKGERRRGKGHDGLYQGLSTATKDTYDALHMQALPPR
In the case of B2, the “cross-reactivity” value in the assay on cynomolgus CD123 is “is not”.

B3: CAR123-3: fully human anti-CD123 scFv CAR with 4-1BB and CD3zeta; CAR amino acid SEQ ID NO: 100 (protein, listed as Homo sapiens)
chain: MALPVTALLLPLALLLHAARPQVQLVQSGAEVKKPGASVKVSCKASGYIFTGYYIHWVRQAPGQGLEWMGWINPNSGGTNYAQKFQGRVTMTRDTSISTAYMELSGLRSDDPAVYYCARDMNILATVPFDIWGQGTLVTVSSGGGGSGGGGSGGGGSDIQLTQSPSSLSASVGDRVTITCRASQSISSYLNWYQQKPGKAPKLLIYAASSLQSGVPSRFSGSGSGTDFTLTVNSLQPEDFATYYCQQGDSVPLTFGGGTKVEIKTTTPAPRPPTPAPTIASQPLSLRPEACRPAAGGAVHTRGLDFACDIYIWAPLAGTCGVLLLSLVITLYCKRGRKKLLYIFKQPFMRPVQTTQEEDGCSCRFPEEEEGGCELRVKFSRSADAPAYKQGQNQLYNELNLGRREEYDVLDKRRGRDPEMGGKPRRKNPQEGLYNELQKDKMAEAYSEIGMKGERRRGKGHDGLYQGLSTATKDTYDALHMQALPPR
Turning to B3, in the assay on cynomolgus CD123, the “cross-reactivity” value is given as “cross-reactive against cynomolgus CD123”.

B4: 1176: murine CD123 CAR construct, CD123 4-1BBCD3z-CAR (26292), SEQ ID NO: 708, described in PCT/US2014/017328 (protein)
chain: MALPVTALLLPLALLLHAARPGSDVQITQSPSYLAASPGETITINCRASKSISKDLAWYQEKPGKTNKLLIYSGSTLQSGIPSRFSGSGSGTDFTLTISSLEPEDFAMYYCQQHNKYPYTFGGGTKLEIKGGGGSGGGGSSGGGSQVQLQQPGAELVRPGASVKLSCKASGYTFTSYWMNWVKQRPDQGLEWIGRIDPYDSETHYNQKFKDKAILTVDKSSSTAYMQLSSLTSEDSAVYYCARGNWDDYWGQGTTLTVSSASSGTTTPAPRPPTPAPTIASQPLSLRPEACRPAAGGAVHTRGLDFACDIYIWAPLAGTCGVLLLSLVITLYCKRGRKKLLYIFKQPFMRPVQTTQEEDGCSCRFPEEEEGGCELRVKFSRSADAPAYKQGQNQLYNELNLGRREEYDVLDKRRGRDPEMGGKPRRKNPQEGLYNELQKDKMAEAYSEIGMKGERRRGKGHDGLYQGLSTATKDTYDALHMQALPPR
Take B4: the “cross-reactivity” value in the assay on cynomolgus CD123 is on record as “cross-reactive against cynomolgus CD123”. The “T cell degranulation (CD107a)” value in assay [1] worked out at 65%.
